This note sets out measurements from publication PMC6877527, “Sugar-mediated regulation of a c-di-GMP phosphodiesterase in Vibrio cholerae” (Nature Communications, 2019).

One assay deals with GST-PdeS (V. cholerae). In words: MST; NanoTemper Monolith NT.115pico; GST-PdeS labeled with NT-647 at 4.875 nM; unlabeled EIIA^Glc titrated in 1:1 serial dilutions from 21.9 uM; 25 mM HEPES-NaOH pH 7.6, 100 mM NaCl, 5 mM beta-mercaptoethanol, 0.5 mg/ml BSA, 0.05% Tween 20; 15% LED power, 30% MST power, 22 C.
Another assay has as its target T1, VC1710 (PdeS) (Vibrio cholerae, UniProt Q9KRD2).
T1 construct: gene VC_1710
Kind of assay: biochemical.

Broadly, the Kd is a measure of binding affinity in units of concentration. A high value points to a looser complex. Compound “hexahistidine-tagged EIIA^Glc, dephosphorylated form (natural protein)” displayed a Kd with GST-PdeS (V. cholerae) of 114 nM. `Nc1nc2c(ncn2[C@@H]2O[C@@H]3CO[P@](=O)(O)O[C@H]4[C@@H](O)[C@H](n5cnc6c(=O)[nH]c(N)nc65)O[C@@H]4CO[P@](=O)(O)O[C@H]3[C@H]2O)c(=O)[nH]1` [c-di-GMP] registered a Kd at VC1710 (PdeS) of approximately 8700 nM. The compound “hexahistidine-tagged EIIA^Glc, phosphorylated form (natural protein)” came in with a dissociation constant (Kd) with GST-PdeS (V. cholerae) of 287 nM.
